The record followed here is patent US20250262210A1 (TRUSTEES OF COLUMBIA UNIVERSITY IN THE CITY OF NEW YORK, published 2025).

The test deals with T1, ANKRD52 (human, UniProt Q8NB46 1-1076).
T1 sequence (looked up): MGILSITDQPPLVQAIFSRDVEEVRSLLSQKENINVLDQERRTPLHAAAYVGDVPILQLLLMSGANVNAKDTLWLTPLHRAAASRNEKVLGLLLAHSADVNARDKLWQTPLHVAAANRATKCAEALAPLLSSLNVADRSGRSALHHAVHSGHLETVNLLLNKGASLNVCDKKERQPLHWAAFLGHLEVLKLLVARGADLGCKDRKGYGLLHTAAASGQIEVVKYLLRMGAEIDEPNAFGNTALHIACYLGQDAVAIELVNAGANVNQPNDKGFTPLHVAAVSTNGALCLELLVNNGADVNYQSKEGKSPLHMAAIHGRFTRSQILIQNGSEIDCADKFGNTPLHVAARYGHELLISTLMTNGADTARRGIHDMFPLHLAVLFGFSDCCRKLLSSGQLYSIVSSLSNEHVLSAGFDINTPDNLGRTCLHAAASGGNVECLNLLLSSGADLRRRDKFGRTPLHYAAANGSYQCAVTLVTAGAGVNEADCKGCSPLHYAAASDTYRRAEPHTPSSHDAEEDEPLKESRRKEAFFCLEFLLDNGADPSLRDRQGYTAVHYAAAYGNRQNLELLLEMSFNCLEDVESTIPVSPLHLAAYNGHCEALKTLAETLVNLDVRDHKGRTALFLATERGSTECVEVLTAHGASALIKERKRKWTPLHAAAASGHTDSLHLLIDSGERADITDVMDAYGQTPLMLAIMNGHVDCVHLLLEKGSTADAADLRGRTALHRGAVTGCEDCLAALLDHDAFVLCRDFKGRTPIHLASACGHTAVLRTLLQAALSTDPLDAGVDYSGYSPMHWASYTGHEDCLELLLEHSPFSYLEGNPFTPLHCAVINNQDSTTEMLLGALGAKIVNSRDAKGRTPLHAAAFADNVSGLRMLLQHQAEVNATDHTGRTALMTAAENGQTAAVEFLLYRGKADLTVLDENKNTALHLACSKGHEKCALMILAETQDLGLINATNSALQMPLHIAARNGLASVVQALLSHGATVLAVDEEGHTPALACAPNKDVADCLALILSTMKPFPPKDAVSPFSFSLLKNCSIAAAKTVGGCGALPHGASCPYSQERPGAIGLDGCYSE
Kind of test: IP/MS, LZTR1 R810W-FLAG, U87. A digest of the protocol:
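Read-out: spectral counts from LC-MS/MS (Orbitrap Fusion) after MaxQuant identification. Variable modifications were Met oxidation, protein N-terminal acetylation and N/Q deamidation.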

B1: LZTR1 R810W-FLAG (other, human, UniProt Q8N653 1-840, looked up)
chain: MAGPGSTGGQIGAAALAGGARSKVAPSVDFDHSCSDSVEYLTLNFGPFETVHRWRRLPPCDEFVGARRSKHTVVAYKDAIYVFGGDNGKTMLNDLLRFDVKDCSWCRAFTTGTPPAPRYHHSAVVYGSSMFVFGGYTGDIYSNSNLKNKNDLFEYKFATGQWTEWKIEGRLPVARSAHGATVYSDKLWIFAGYDGNARLNDMWTIGLQDRELTCWEEVAQSGEIPPSCCNFPVAVCRDKMFVFSGQSGAKITNNLFQFEFKDKTWTRIPTEHLLRGSPPPPQRRYGHTMVAFDRHLYVFGGAADNTLPNELHCYDVDFQTWEVVQPSSDSEVGGAEVPERACASEEVPTLTYEERVGFKKSRDVFGLDFGTTSAKQPTQPASELPSGRLFHAAAVISDAMYIFGGTVDNNIRSGEMYRFQFSCYPKCTLHEDYGRLWESRQFCDVEFVLGEKEECVQGHVAIVTARSRWLRRKITQARERLAQKLEQEAAPVPREAPGVAAGGARPPLLHVAIREAEARPFEVLMQFLYTDKIKYPRKGHVEDVLLIMDVYKLALSFQLCRLEQLCRQYIEASVDLQNVLVVCESAARLQLSQLKEHCLNFVVKESHFNQVIMMKEFERLSSPLIVEIVRRKQQPPPRTPLDQPVDIGTSLIQDMKAYLEGAGAEFCDITLLLDGHPRPAHKAILAARSSYFEAMFRSFMPEDGQVNISIGEMVPSRQAFESMLRYIYYGEVNMPPEDSLYLFAAPYYYGFYNNRLQAYCKQNLEMNVTVQNVLQILEAADKTQALDMKRHCLHIIVHQFTKVSKLPTLWSLSQQLLLDIIDSLASHISDKQCAELGADI
notes: Stably expressed in U87 cells by lentivirus; also called LZTR1-FLAG-R810W; LZTR1 RW; not shown: FLAG tag
For the molecule B1, the binding result is listed as “binds”.
